Experimental data: patent publication US20220195057A1 (LANOVA MEDICINES, published 2022)
Residue numbers refer to the chain shown, from its start. Blank lines part the entries; values can stand above or below the molecule they belong to.

Key:
[1] = target: human chemokine (C-C motif) receptor 8 (CCR8) protein (human) (UniProt P51685); assay: flow cytometry, low-CCR8-expressing Jurkat cells
[2] = target: human chemokine (C-C motif) receptor 8 (CCR8) protein (human) (UniProt P51685); assay: flow cytometry, high-CCR8-expressing U2OS cells
[3] = target: T1, human chemokine (C-C motif) receptor 8 (CCR8) protein (human, UniProt P51685 1-355); assay: cell-based or functional assay
[4] = target: T1, human chemokine (C-C motif) receptor 8 …; assay: cell binding, CCR8-expressing CHO-K1 cells, curve fit; set-up: LogEC50: unit not given here
[5] = target: T1, human chemokine (C-C motif) receptor 8 …; assay: cell binding, CCR8-expressing U2OS cells, curve fit; set-up: LogEC50: unit not given here
[6] = target: T1, human chemokine (C-C motif) receptor 8 …; assay: as above; set-up: LogEC50: unit not given here; remark: listed apart in the source
[7] = target: T1, human chemokine (C-C motif) receptor 8 …; assay: cell binding, CCR8-expressing CHO-K1 cells, curve fit; set-up: LogEC50: unit not given here; remark: listed apart in the source
[8] = target: T1, human chemokine (C-C motif) receptor 8 …; assay: flow cytometry, low-CCR8-expressing Jurkat cells
Source text: The cells used were Jurkat engineering cells (Jurkat/H_CCR8).

[9] = target: T1, human chemokine (C-C motif) receptor 8 …; assay: flow cytometry, high-CCR8-expressing U2OS cells
Source text: The cells used were U2OS (U2OS/H_CCR8).

[10] = target: T1, human chemokine (C-C motif) receptor 8 …; assay: flow cytometry, CCR8-expressing HEK293 cells
Summary of the method: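 Cell binding was measured by flow cytometry on HEK293 cells overexpressing human CCR8, alongside parental HEK293 cells. Antibodies were titrated from 200 nM in 4-fold dilutions over 12 points and incubated with the cells at 4° C for 60 minutes. Cells were washed twice with FACS buffer, stained with Alexa Fluor 647 goat anti-human IgG at 4° C for 60 minutes, washed twice and analysed. The read-out is binding EC50.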

B2: 88-xi (antibody, V domains shown)
VH: EVQLVETGGGLVQPKGSLKLSCAASGFTFNPNAMNWVRQAPGKGLEWVARIRSKSNNYATYYADSVKDRFTISRDDSQSMLYLQMNNLKTEDTAMYYCVRGKDDGYRHYAMDYWGQGTSVTVSS
VL: DIVMTQAAPSVPVTPGESVSISCRSSKSLLHSNGNTYLYWFLQRPGQSPQLLIYRMSNLASGVPDRFSGSGSGTAFTLRISRVEAEDVGVYYCMQHLEYPFTFGAGTKLELK
notes: also called 88D2C6; chimeric 88D2C6
Bottom [4]: 3630
LogEC50 [4]: -0.655
Span [4]: 30300
Top [4]: 33900
Bottom [5]: 1030
LogEC50 [5]: -0.692
Span [5]: 28600
Top [5]: 29700

B3: LM-108-vc-MMAE (other)
VH: EVQLVESGGGLVQPGGSLKLSCAASGFTFNTYAMNWVRQASGKGLEWVARIRSKANNYATYYADSVKDRFTISRDDSKNTLYLQMNNLKTEDTAVYYCVRDRSRGEDYAMDYWGQGTLVTVSS
VL: DIVMTQSPLSLPVTPGEPASISCRSSKSLLHSNANTYLYWFLQKPGQSPQLLIYRMSNLASGVPDRFSGSGSGTAFTLKISRVEAEDVGVYYCMQHLEYPFTFGQGTKLEIK
modifications: vc-MMAE (monomethyl auristatin E) conjugated to the antibody; site and drug number not stated
cytotoxicity IC50 (Cell-Titer-Glo viability, 96 hours) [3]: 528 pM

B4: 137-H2L2 (antibody, V domains shown)
VH: B3 VH with A49G, L81A
VL: B3 VL
notes: Humanized 137D1H10
Bottom [6]: 915
LogEC50 [6]: -0.842
Span [6]: 25300
Top [6]: 26300
Bottom [7]: 2550
LogEC50 [7]: -0.789
Span [7]: 26800
Top [7]: 29300

B6: 88-H2L2 (antibody, V domains shown)
VH: B2 VH with T7S, K15G, P41S, A49G, Q78K, S79N, M80T, L81A, M95V, S119T
VL: B3 VL with Q105G, L109V
notes: Humanized 88D2C6
Bottom [4]: 2490
LogEC50 [4]: -0.639
Span [4]: 30300
Top [4]: 32800
Bottom [5]: 2760
LogEC50 [5]: -0.724
Span [5]: 25600
Top [5]: 28300

B7: 88-H3L2 (antibody, V domains shown)
VH: B2 VH with T7S, K15G, P41S, Q78K, S79N, M80T, M95V, S119T
VL: B3 VL with Q105G, L109V
notes: Humanized 88D2C6
Bottom [4]: 3940
LogEC50 [4]: -0.686
Span [4]: 28600
Top [4]: 32500
Bottom [5]: 2830
LogEC50 [5]: -0.684
Span [5]: 24600
Top [5]: 27400

B9: 88-H3L3 (antibody, V domains shown)
VH: B2 VH with T7S, K15G, P41S, Q78K, S79N, M80T, M95V, S119T
VL: B3 VL with S7A, A19V, Q105G
notes: Humanized 88D2C6
Bottom [4]: 3470
LogEC50 [4]: -0.583
Span [4]: 28700
Top [4]: 32200
Bottom [5]: 1620
LogEC50 [5]: -0.629
Span [5]: 25800
Top [5]: 27400

B11: 88-H1L2 (antibody, V domains shown)
VH: EVQLVESGGGLVQPGGSLKLSCAASGFTFNPNAMNWVRQASGKGLEWVGRIRSKSNNYATYYADSVKDRFTISRDDSKNTAYLQMNSLKTEDTAVYYCTRGKDDGYRHYAMDYWGQGTTVTVSS
VL: B3 VL with Q105G, L109V
notes: Humanized 88D2C6
Bottom [4]: 2670
LogEC50 [4]: -0.751
Span [4]: 30100
Top [4]: 32800
Bottom [5]: 2110
LogEC50 [5]: -0.678
Span [5]: 26800
Top [5]: 28900

B13: 88-H1L3 (antibody, V domains shown)
VH: B11 VH
VL: B3 VL with S7A, A19V, Q105G
notes: Humanized 88D2C6
Bottom [4]: 2140
LogEC50 [4]: -0.519
Span [4]: 29800
Top [4]: 31900
Bottom [5]: 1540
LogEC50 [5]: -0.58
Span [5]: 26100
Top [5]: 27600

B14: 88-H2L3 (antibody, V domains shown)
VH: B11 VH with S87N, T99V
VL: B3 VL with S7A, A19V, Q105G
notes: Humanized 88D2C6
Bottom [4]: 2280
LogEC50 [4]: -0.546
Span [4]: 29300
Top [4]: 31600
Bottom [5]: 1530
LogEC50 [5]: -0.512
Span [5]: 24200
Top [5]: 25800

Second part, led by results:

Max (MFI) [1]: 134 MFI
Max (MFI) [2]: 215 MFI
Molecule: isotype control (antibody)

ADCC EC50 (CCR8-overexpressing CHO K1 cells) [3]: 17.4 pM
B1: 88D2C6 (fused to human IgG1 constant regions, with ADCC-activating mutations in Fc) (antibody, V domains shown)
VH: B2 VH
VL: B2 VL

Bottom [6]: 2170
LogEC50 [6]: -0.605
Span [6]: 31300
Top [6]: 33400
Bottom [7]: 3030
LogEC50 [7]: -0.779
Span [7]: 31900
Top [7]: 34900
B5: 137-xi (antibody, V domains shown)
VH: B3 VH with G15K, A23T, S41P, K78Q, N79R, T80I, T90A, V95M, L118S
VL: B2 VL
notes: also called 137D1H10; chimeric 137D1H10

Bottom [6]: 2060
LogEC50 [6]: -0.69
Span [6]: 30200
Top [6]: 32300
EC50 [8]: 212 pM
EC50 [9]: 250 pM
EC50 [10]: 1030 pM
Bottom [7]: 4260
LogEC50 [7]: -0.684
Span [7]: 28900
Top [7]: 33200
B8: 137-H3L2 (LM-108) (antibody, V domains shown)
VH: B3 VH
VL: B3 VL
notes: Humanized 137D1H10; Detected with anti-human IgG
ADCC EC50 with primary human PBMCs (cytotoxicity detection) [3]: 2 pM

Bottom [6]: 2100
LogEC50 [6]: -0.717
Span [6]: 29800
Top [6]: 31900
Bottom [7]: 3820
LogEC50 [7]: -0.754
Span [7]: 29600
Top [7]: 33400
B10: 137-H3L3 (antibody, V domains shown)
VH: B3 VH
VL: B3 VL with A19V
notes: Humanized 137D1H10

Bottom [6]: 1320
LogEC50 [6]: -0.484
Span [6]: 25900
Top [6]: 27300
Bottom [7]: 2240
LogEC50 [7]: -0.505
Span [7]: 27900
Top [7]: 30200
B12: 137-H2L3 (antibody, V domains shown)
VH: B3 VH with A49G, L81A
VL: B3 VL with A19V
notes: Humanized 137D1H10
